From patent publication US20200239524A1 (University of Washington, published 2020)

B1: BimLOCKRc (nine residue toehold) (designed binder)
chain: MGSSHHHHHHSSGLVPRGSHMSLEAVLKLAELNLKLSDKLAEAVQKLAALLNKLLEKLSEALQRLFELNVALVTLAIELTDPKRIADEIKKVKDKSKEIVERAEEEIARAAAESKKILDEAEEEIARAAAESKKILDEGSGSGSDAVAELQALNLKLAELLLEAVAELQALNLKLAELLLEAIAKLQELNIKLVELLTKLTDPATIREAIRKVKEDSERIVAEAERLIAAAKAESERIIREAERLIAAAKAESERIIREGSGSNDPLVARLQELLIEHARELLRLVATSQEIFIELARAFLANAAQLQEAAIKAVEAASENGSGEIWIAQELRRIGDEFNAYYAQNQKLLKDHKRAQEKLNRELEELKKKHKK
notes: also called printed once as 'BimLOCKR,'
B2: BimLOCKRb (nine residue toehold) (designed binder)
chain: MGSSHHHHHHSSGLVPRGSHMSHAAVIKLSDLNIRLLDKLLQAVIKLTELNAELNRKLIEALQRLFDLNVALVHLAAELTDPKRIADEIKKVKDKSKEIVERAEEEIARAAAESKKILDEAEEEIARAAAESKKILDEGSGSGSDAVAELQALNLKLAELLLEAVAELQALNLKLAELLLEAIAKLQELNIKLVELLTKLTDPATIREAIRKVKEDSERIVAEAERLIAAAKAESERIIREAERLIAAAKAESERIIREGSGSNDPQVAQNQETFIELARDALRLVAENQEAFIEVARLTLRAAALAQEVAIKAVEAASEGGSGSGNEIWIAQELRRIGDEFNAYYAEHKEIHDKLRKKNKKAREDLKKKADE

Molecular target: T1, Bcl2 (UniProt P10415 1-207, limits assumed, biotinylated)
T1 construct: Loaded on streptavidin biosensors; also called Biotinylated Bcl2; target
Experiment: bio-layer interferometry (Octet), Bcl2 on tips, switch with nine residue toehold with and without cognate key
Source text: Specificity was designed for using different hydrogen bond networks at the cage-key interface. The latch helix was deleted from the original extended LOCKRₐ model and backbones for a new sixth helix were generated by parametrically sampling the radius, helical phase, and z-offset of the new latch/key helix. The resulting structures were scanned for new hydrogen bond networks spanning the interface between the new sixth helix and cage with all buried polar atoms participating in hydrogen bonds; the remaining interface around the networks was subjected to full sequence and sidechain rotamer optimization using Rosetta™ design. Five designs were selected based on packing quality, sequence dissimilarity, and lack of buried polar atoms not participating in hydrogen bonds. Truncations and toehold variants were assayed for cognate and off target key binding using the GFP pulldown assay from FIG. 1c. […] All bound keyₐ to some extent yet is unknown. The Bim sequence was threaded onto the latches of these three designs as it was for the original design, BimLOCKRₐ (FIG. 2). BimLOCKRb and BimLOCKR, show 22-fold and 8-fold activation, respectively, from their cognate keys given a nine residue toehold on the latch (FIG. 3a,b). BimLOCKRₐ, BimLOCKRb and BimLOCKRc are also orthogonal; each is activated only by its cognate key at concentrations up to 5 uM (FIG. 3c). […]

T1 sequence (P10415 1-207 limits assumed): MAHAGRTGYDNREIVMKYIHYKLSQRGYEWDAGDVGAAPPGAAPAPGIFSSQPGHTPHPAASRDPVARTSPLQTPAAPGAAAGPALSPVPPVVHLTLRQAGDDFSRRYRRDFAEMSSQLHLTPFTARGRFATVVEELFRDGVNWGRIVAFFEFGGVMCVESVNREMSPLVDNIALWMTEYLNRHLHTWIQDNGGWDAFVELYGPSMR

Row | Binder | fold activation of binding by the cognate key [fold]
1 | B1 | 8
2 | B2 | 22
